Source: patent publication US20090004212A1, “Tumour vaccines for MUC1-positive carcinomas” (priority 1997, published 2009)
No end group written: not given here. *: point of attachment. αGalNAc = CC(=O)N[C@@H]1[C@@H](O)[C@@H](O)[C@@H](CO)O[C@@H]1*

B1: SAPDT(-GalNAc)RPAPG (SAP10-T5*) (peptide)
peptide: SAPDT(αGalNAc)RPAPG
notes: Glycopeptide; also called SAP10-T5-GalNAc; F2

What was measured:
[1] = biological target: T1, Human cathepsin-L (Homo sapiens, UniProt P07711); test: In vitro proteolysis by cathepsin-L; type: biochemical; conditions: 37° C., 24 h
T1 construct: purchased Sigma (Munich, Germany)
T1 sequence (P07711 114-333): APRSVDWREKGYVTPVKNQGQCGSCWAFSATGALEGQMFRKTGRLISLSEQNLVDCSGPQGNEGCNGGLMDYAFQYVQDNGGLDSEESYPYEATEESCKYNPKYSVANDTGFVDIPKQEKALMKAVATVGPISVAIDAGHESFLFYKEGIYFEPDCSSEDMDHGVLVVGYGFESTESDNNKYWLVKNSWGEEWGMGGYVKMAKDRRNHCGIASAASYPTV
Description: (§1) Glycopeptides were incubated with 10 μg of human 20S immunoproteasomes (Immatics) for […], at 37° C., in 10 μl of digestion buffer (20 mM HEPES/KOH, pH 7.6 containing 2 mM Mg(CH3COO)2 and 1 mM DTT) as described (13). Digestion was stopped after 24 h by freezing the sample at −80° C. Human cathepsin-L was purchased from Sigma (Munich, Germany) and solubilized in 0.1 M sodium acetate, pH 5.5, containing 1 mM EDTA and 1 mM dithiothreitol (12). About 5 mU of enzyme were added to sialoglycopeptide substrates SGGP1 to SGGP5 (75-100 μM) in a total volume of 20 μl. The reaction mixtures were incubated at 37° C. for 24 h and 1 μl of trifluoroacetic acid was added to stop the reaction. The reaction products were cleaned by solid-phase extraction on ZipTipC18 pipette tips and 0.5 μl aliquots were applied onto the MALDI target for mass spectrometric analysis. Kinetic studies with the non-glycosylated 100-mer P1 were performed under the same conditions and the products were chromatographed on HPLC for purification and quantification.

[2] = biological target: T2, human 20S immunoproteasomes (Homo sapiens, UniProt P28062+P28065+P40306); test: In vitro proteolysis of MUC1 repeat peptides and glycopeptides by immunoproteasomes; type: biochemical
T2 construct: purchased Immatics Biotechnologies (Tübingen, Germany)
Description: A 1 mg/ml solution of immunoproteasomes prepared according to a published protocol (20) was purchased from Immatics Biotechnologies (Tübingen, Germany) and stored frozen at −80° C.
as §1

[3] = system: T2 target cells; test: CTL activity against peptide-loaded T2 target cells (CFSE/7-AAD); type: cell-based, human; conditions: T2 cells loaded with 10 μg/ml peptide, 6-hour incubation
Description: (§2) Peripheral blood mononuclear cells (PBMCs) were isolated from buffy coats of HLA-A*0201 healthy donors by Ficoll-Hypaque (MP Biomedicals, Solon, Ohio) density gradient centrifugation.
(§3) Dendritic cells (DCs) were generated by culturing adherent monocytes for 6 days in AIM-V medium (Invitrogen, Carlsbad, Calif.) supplemented with 500 U/mL granulocyte macrophage colonystimulating factor (GM-CSF, R&D, Minneapolis, Minn.) and 1000 U/mL interleukin (IL)-4 (R&D), and then matured for 48 hours with a cocktail of cytokines consisting of 10 ng/mL of each, tumor necrosis factor (TNF)-alpha, IL-6, IL-1beta (R&D), and 1 μg/mL prostaglandine E2 (Sigma, St. Louis, Mo.). […] DCs pulsed with single peptides were combined, washed, resuspended and used as stimulator cells. They were added to the autologous lymphocyte fraction in 24-well Linbro plates (ICN, Aurora, Ohio) at a ratio of 1:10 at culture initiation and fed in RPMI 1640 media supplemented with 10% human AB serum, 10 ng/ml rhIL-6 (R&D) and 5 ng/ml rhIL-12 (PreproTech, Rocky Hill, N.J.). On day 10 and thereafter every 9 days, T cells were restimulated at a ratio of 1 DC to 20 T cells, in RPMI 1640 media supplemented with 10% human AB serum, rhIL-2 and rhIL-7 (20 U/ml each, R&D).
(§4) Antigen Specificity was Assessed after 4 Stimulations. Three Days Past Each stimulation cell supernatant was collected and IFNy secretion was quantified using OptElA human IFNy ELISA kit (BD). CD8+ T-cells were enriched using magnetic microbeads (human CD8+ T Cell Isolation Kit II from Miltenyi Biotech, Auburn, Calif.) according to the manufacture's instructions and analyzed by flow cytometry for intracellular IFN-gamma and TNF-alpha production after a final 5-hour restimulation with peptide-loaded DCs in the presence of monensin (Golgi Stop, BD; 21). CTL activity was determined 3 days after the last restimulation. […] They were washed, labeled with 5- (and 6)-carboxyfluorescein diacetate succinimidyl ester (CFSE) according to the manufacture's instructions (Immunochemistry, Bloomington, Minn.) and added to a 96-well plate in duplicates at 5000 cells/well. CFSE labeled T2 cells not loaded with peptides were used as controls. CD8+ T effector cells were added at various E:T ratios for a 6-hour incubation at 37° C. Target cell death was detected by adding 7-amino-actinomycin (7-AAD, Immunochemistry) to each well 10 min before data analysis by flow cytometry and analysis was performed according to the manufacture's instructions (22).

[4] = system: CD8+ T-cells; test: IFN-gamma and TNF-alpha production by peptide-primed T-cells; type: cell-based, human; conditions: after last cycle of restimulation, 4 weeks of in vitro culture
Description: as §2, §3, §4

[5] = biological target: T3, HLA-A0201 (Homo sapiens, UniProt P04439, D140Y/D185E/D98H/E176V/E277Q/G131W/G231S/I119V/I121R/I166T/I218V/L300P/L318F/N151K/N90K/P208A/P217A/Q86G/Q94H/R138H/R169H/T345S); test: MHC stabilization assay on T2 cells; type: binding; conditions: T2 cells, 100 μg peptide, 16 h, W6/32 antibody, FACS
T3 construct: endogenous in cells; host or cells: T2 cell line (TAP-deficient)
Description: MHC stabilization assay is based on the increased affinity of HLA-A, -B, -C specific monoclonal W6/32 antibody for the stabilized conformation of MHC molecules after binding of a peptide ligand. The T2 cells express empty MHC molecules with short half-life.
For MHC stabilization assay T2 cells were grown in IMDM medium supplemented with 2% FCS. T2 cells were washed in PBS from the residual serum, and resuspended at 1×10^6/ml of IMDM supplemented with 0.1% FCS and 25 mM HEPES. Half of a million of cells were incubated in 48-well cell culture plate with 1 μg of […]2-microglobulin and 100 μg of peptide for 16 h at 27° C. and 8% CO2. Cells were washed with 5 ml PBS, centrifuged at 180×g for 5 min and the pellet was resuspended in 10 μl PBS containing 1 μg of W6/32 antibody and incubated at 4° C. for 30 minutes.
Subsequently, cells were washed in PBS with 1% BSA (3×5 ml) and the pellet was resuspended in 50 μl of secondary anti-mouse Alexa 488 antibody (1:1000 in PBS with 0.1% BSA), incubated for 30 minutes in the dark, washed with PBS (3×5 ml) and resuspended in 500 μl of PBS. Binding of the W6/32 antibody to MHC class I molecules was analyzed by FACS on the Beckman Coulter ADCXL4C flow cytometer. As a positive control hepatitis B virus core antigen HBVc18-27 P6Y˜C ([…]) was used. As a negative control T2 cells were used, to which no peptide was added.
Relative binding capacities of the peptides were expressed as the percent of the positive control signal (100%), normalized to the negative control (0%). A mean fluorescence that was at least 10% higher than the negative control level was considered positive binding.

[6] = biological target: T4, HLA-A*0201 allele of the MHC class I molecule, empty, on the surface of TAP-deficient T2 cells (human); test: MHC stabilization assay on T2 cells, W6/32 staining, flow cytometry
T4 construct: also called HLA-A2

Molecule | lysis of peptide-pulsed T2 target cells by induced CD8+ T cells [3] | CD8+ cells producing IFN-γ [4] | TNF-α production by CD8+ cells [4] | ligation strength (binding to HLA-A0201) [5] | binding result [6] | further results
(CVISAPDTRPAPGSTAPPAH)x5 [Peptide P1] |  |  |  |  |  | digestion of the substrate by cathepsin L [1]: quantitative digestion of the substrate within 24 h; AVERAGE FRAGMENT LENGTH ([2]; digest by immunoproteasomes): 25.2; NUMBER OF FRAGMENTS ([2]; digest by immunoproteasomes, HPLC and MALDI-MS): 105; % of glycopeptide ([2]; glycosylated 8- to 11-meric fragments relative to total 8- to 11-mers): 0%; 8-11 mers (%) ([2]; relative to total amount of digestion products of immunoproteasomal cleavage): 13%
SAPDT(-GalNAc)RPAPG (SAPDTRPAPG) [Peptide F2] | efficiently lysed | 22% | not TNF-α | strong binding |  | lysis of peptide-pulsed T2 target cells by induced CD8+ T cells ([3]; listed as SAP10-T5*): efficiently kill; ligation strength (binding to HLA-A0201) ([5]; listed as SAP10-T5*): binding comparably strong in the glycosylated and non-glycosylated form; ligation strength (binding to HLA-A0201) ([5]; listed as SAP10-T5-GalNAc): slightly weaker binding
SAPDTRPAPG (fragment of MUC1; listed as Homo sapiens) [Peptide F1] | efficiently lysed | 28.8% | not TNF-α | strongest binders |  | lysis of peptide-pulsed T2 target cells by induced CD8+ T cells ([3]; listed as SAP10): efficiently kill
SAPDTRPAPG (also called F1) [SAP10, non-glycosylated MUC1 tandem repeat peptide SAPDTRPAPG] |  |  |  |  | binds | 
B1 |  |  |  |  | binds | 
